According to publication PMC8547449, “Streptococcus pyogenes Forms Serotype- and Local Environment-Dependent Interspecies Protein Complexes” (mSystems, 2021):

Target: T1, C4b-binding protein (human, UniProt P04003 49-597; P20851 18-252)
T1 construct: In the AP-MS experiments it was followed by its alpha chain (C4BPA); also called C4BP; C4BPα; source: endogenous, pooled human plasma (AP-MS); bought: Complement Technology, purified human complement C4BP, catalog A109 (SPR, TX-MS, HDX-MS); copies: 7 +
T1 sequence (looked up) 1: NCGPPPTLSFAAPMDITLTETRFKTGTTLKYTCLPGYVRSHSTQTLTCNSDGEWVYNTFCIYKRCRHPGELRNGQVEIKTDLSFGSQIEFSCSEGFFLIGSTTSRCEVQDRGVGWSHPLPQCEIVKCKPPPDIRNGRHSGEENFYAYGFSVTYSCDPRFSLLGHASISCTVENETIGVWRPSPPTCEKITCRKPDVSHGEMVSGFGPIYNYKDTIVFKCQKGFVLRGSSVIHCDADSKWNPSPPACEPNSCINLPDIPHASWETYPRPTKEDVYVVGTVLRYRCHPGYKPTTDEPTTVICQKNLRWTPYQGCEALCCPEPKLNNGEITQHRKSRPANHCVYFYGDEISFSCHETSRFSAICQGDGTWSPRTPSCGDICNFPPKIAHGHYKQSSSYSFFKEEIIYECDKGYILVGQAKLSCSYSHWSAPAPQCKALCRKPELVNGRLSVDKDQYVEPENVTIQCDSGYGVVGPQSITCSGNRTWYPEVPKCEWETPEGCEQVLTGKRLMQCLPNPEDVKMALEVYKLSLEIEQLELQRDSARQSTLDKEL
T1 sequence (looked up) 2: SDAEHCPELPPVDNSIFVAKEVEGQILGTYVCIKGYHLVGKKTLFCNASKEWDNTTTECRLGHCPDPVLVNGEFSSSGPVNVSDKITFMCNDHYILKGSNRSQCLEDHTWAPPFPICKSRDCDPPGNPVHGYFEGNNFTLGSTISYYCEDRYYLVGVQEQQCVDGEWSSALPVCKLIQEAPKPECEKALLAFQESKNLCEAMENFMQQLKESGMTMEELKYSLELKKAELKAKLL
Assay: cross-linking; TX-MS: 10 μg C4BP or 10 μg IgA Fc with 10 μg untagged M28 in 100 μl PBS, 37°C, DSS-H12/D12 at 0 to 2,000 μM for 60 min; cross-linked peptides by DDA-MS
Conditions: both partners purified

B1: M28 protein, recombinant, affinity tag removed by TEV protease (natural protein)
chain: AESPKSTETSANGADKLADAYNTLLTEHEKLRDEYYTLIDAKEEEPRYKALRGENQDLREKEGKYQDKIKKLEEKEKNLEKKSEDVERHYLKKLDQEHKEQEERQKNLEELERQSQREIDKRYQEQLQKQQQLETEKQISEASRKSLSRDLEASRAAKKDLEAEHQKLKEEKQISDASRQGLSRDLEASRAAKKDLEAEHQKLKEEKQISDASRQGLSRDLEASREAKKKVEADLAEANSKLQALEKLNKELEEGKKLSEKEKAELQARLEAEAKALKEQLAKQAEELAKLKGNQTPNAKVAPQANRSRSAMTQQKR
notes: M protein of S. pyogenes serotype M28, mature, without the signal peptide and the LPXTG cell wall-anchoring motif, aa 42 to 358; Used for SPR, TX-MS and HDX-MS; also called untagged M28; TEV-cleaved M28; source: E. coli Tuner(DE3), purified (HisTrap, TEV digestion, HisTrap, Superdex 200)
**Q.** Does B1 bind?
**A.** Result: binds
